# Experimental data published in patent US20190256582A1.
# Where two headings read alike, the source gives them in different places.
# B1: ZKA190 (antibody, V domains shown)
# VH: QVQLVESGGGVVQPGRSLRLSCAASGFTFSKYGMHWVRQAPGKGLEWVAVISYEGSNKYYADSVKGRFTISRDNSKNTLYLQMNSLRAEDTAVYYCAKSGTQYYDTTGYEYRGLEYFGYWGQGTLVTVSS
# VL: EIVLTQSPGTLSLSPGERATLSCRASQSVSSSYLAWYQQKRGQAPRLLIYDASSRATGIPDRFSGSGSGTDFTLTISRLEPEDFAVYYCQQYGRSRWTFGQGTKVEIK
# What was measured:
# [1] = target: T1, panel of four distinct ZIKV strains (H/PF/2013; MR766, MRS-OPY and PV10552); assay: cell-based or functional assay
# [2] = target: T1, panel of four distinct ZIKV strains …; assay: cell-based or functional assay; remark: listed apart in the source
binder,measurement,setting,value
B1,"ZIKV neutralization IC50 (four strains, Vero cells, flow cytometry)",[1],0.6 to 8 ng/mL
same,"ZIKV neutralization IC50 (four strains, Vero cells, flow cytometry)",[2],4 to 50 pM
